The results in this text go back to patent US20040171074A1, “Structures of substrate binding pockets of SCF complexes” (MOUNT SINAI HOSPITAL, priority 2002, published 2004).

Assay [1] deals with cdc4Δ strain overexpressing SIC1. In words: sensitivity to SIC1 dosage: GAL1-SIC1 overexpression in strains bearing CDC4 alleles. The settings on record: for gal Sic1T33V: GAL1-SIC1 T33V (partially stabilized Sic1); for gal Sic1T33V / gal Sic1T45A / gal Sic1 wt: galactose, 2 days at 30° C.; for gal Sic1T45A: GAL1-SIC1 T45A; for gal Sic1 wt: GAL1-SIC1 wild type; for viability / sensitivity to increased SIC1 dosage: Sic1 wt or stabilized Sic1(T33V) or Sic1(T45A) over-expressed under a galactose promoter. The assay is classed as cell-based, yeast. On the procedure:
(§1) Mutational analysis of the CPD binding surface. Mutants were tested in vitro by ability to bind phosphorylated Sic1 and then captured onto GST-Skp1/Cdc4 resin and detected with anti-sic1 antibody. Mutants were tested in vivo by ability to degrade GAL1-SIC1 or various phosphorylation mutants. Sites are as follows: 3=Thr 33, Thr 45, Ser 76; 4=Thr 5, Thr 33, Thr 45, Ser 76; 5=Thr 2, Thr 5, Thr 33, Thr 45, Ser 76; 6=Thr 2, Thr 5, Thr 33, Thr 45, Ser 69, Ser 76; 7=Thr 2, Thr 5, Thr 33, Thr 45, Ser 69, Ser 76, Ser 80. GAL1-SIC1 plasmids were transformed into a cdc4Δ strain containing a copy of CDC4 on a TRP1 ARS CEN plasmid. Strains were incubated for 2 days at 30° C.
(§2) All mutants on a TRP1 ARS CEN plasmid were transformed into a cdc4Δ strain (MT 1259) containing a wildtype copy of CDC4 on a URA3 ARS CEN plasmid. Cells were plated on either Trp^−Ura^− or 5-FOA medium for 2 days at 30° C. Viable cells on 5-FOA were grown in Trp medium and transformed with either wild type GAL1-SIC1, GAL1-SIC T45A, or GAL1-SIC T33V on a LEU2 ARS CEN pasmid. Cells were then plated on Leu- Trp-plates containing either glucose or galactose and incubated for 2 days at 30° C.
Since the cell viability assay nay be masking subtle functional roles for the conserved Cdc4 residues, function was assayed in vivo under more stringent conditions in which Sic1 wt or the stabilized mutants, Sic1 (T33V) or Sic1(T45A) are over-expressed under a galactose promoter. This should amplify defects in cdc4 function. Under these conditions, Trp 717, Tyr 548 and the double mutant K404D/R443D are lethal showing that these residues are in fact important for functions
(§3) Cdc4 functional assays. CDC4 mutant alleles were assessed for complementation of a cdc4A strain in a plasmid shuffle assay (Nash et al., 2001). Sensitivity to SIC1 dosage was determined by transformation with pMT837 (GAL1-SIC1) or pMT767 (GAL1-SIC1^T33V) and plating on glucose medium or galactose medium. For in vitro capture of phospho-Sic1 by Cdc4, 0.5 μg of bacterially-expressed ^HIS6Sic1 was phosphorylated with immobilized Cln2-Cdc28 kinase from baculovirus-infected Sf9 cells and then incubated with 1 μg of immobilized wild type or mutant Cdc4^263-744-GST-Skp1, at 4° C. for 1 hr, washed 4 times and visualized by anti-Sic1 immunoblot. For isoelectric focusing (IEF)-2D gel analyses, an evenly distributed pool of phospho-Sic1 isoforms was generated by combining different time points in a Sic1 phosphorylation reaction. 2.5 μg of the phospho-Sic1 pool was bound to 5 μg of immobilized wild type or mutant Cdc4^1-744-GST-Skp1. Captured isoforms were separated by denaturing IEF-2D gel electrophoresis using pH3-10NL Immobiline gel strips (Amersham) and visualized by anti-Sic1 immunoblot. Alternatively, the pool of phospho-Sic1 isoforms was incubated in solution with a ubiquitination reaction mix containing ATP, ubiquitin, yeast E1, Cdc34 and either wild type or mutant SCF^Cdc4 complex, composed of a 1:1 ratio of bacterial Cdc4-GST-Skp1 and insect cell-produced Cdc53-Rbx1, at 30° C. for 1 h as previously described (Nash et al., 2001).

Assay [2] relates to phospho-Sic1. In words: P-Sic1 pull down: in vitro capture of phospho-Sic1 on immobilized wild type or mutant Cdc4-GST-Skp1, anti-Sic1 immunoblot. The assay is classed as binding, yeast. The settings on record: Sic1 phosphorylated with Cln2-Cdc28, captured onto GST-Skp1/Cdc4 resin, anti-Sic1 detection. On the procedure: as §1
Bacterially expressed His6-Sic1 was phosphorylated with Cln2-Cdc28 kinase purified from baculovirus infected Sf9 cells as described before (Nature paper). 1 ug of WT or mutant Cdc4-GST-Skp1, immoblized on GSH-Sepharose resin, was incubated with 0.5 ug phospho-Sic1 at 4 C for 1 h and washed 4 times. Captured complexes were resolved on SDS-PAGE and Sic1 visualized by anti-Sic1 Western blotting and ECL. For IEF-2D analysis, several Sic1 phosphorylation reactions were carried out for different time periods to obtain a spectrum of Sic1 that were phosphorylated at different numbers of its nine CDK sites. This pool of phospho-Sic1 (2.5 ug) was incubated with 5 μg of WT or mutant Cdc4-GST-Skp1 as described above. Different phosphorylation states of Sic1 were separated by denaturing isoelectric focusing (IEF)-2D gel electrophoresis and visualized by anti-Sic1 Western blotting and ECL. IEF was performed using pH 3-10NL Immobiline gel strips and IPGphore IEF system (Amersham pharmacia).
as §3
For orientation: In western blotting, separated proteins are transferred to a membrane and probed.

For assay [3], the system named is cdc4Δ strain. In words: plasmid shuffle assay: complementation of a cdc4Δ strain by CDC4 alleles. It counts as cell-based, yeast. The settings on record: viability of cdc4Δ strain on 5-FOA, 2 days at 30° C. How it is done: as §2, §3

Changes are numbered by the printed parent chain. Numbers in names are those of the source. Entries after “also recorded” stand apart in the source; their conditions may differ.

B1: Y548F: mutant cdc4 polypeptide (protein)
chain: MGSFPLAEFPLRDIPVPYSYRVSGGIASSGSVTALVTAAGTHRNSSTAKTVETEDGEEDIDEYQRKRAAGSGESTPERSDFKRVKHDNHKTLHPVNLQNTGAASVDNDGLHNLTDISNDAEKLLMSVDDGSAAPSTLSVNMGVASHNVAAPTTVNAATITGSDVSNNVNSATINNPMEEGALPLSPTASSPGTTTPLAKTTKTINNNNNIADLIESKDSIISPEYLSDEIFSAINNNLPHAYFKNLLFRLVANMDRSELSDLGTLIKDNLKRDLITSLPFEISLKIFNYLQFEDIINSLGVSQNWNKIIRKSTSLWKKLLISENFVSPKGFNSLNLKLSQKYPKLSQQDRLRLSFLENIFILKNWYNPKFVPQRTTLRGHMTSVITCLQFEDNYVITGADDKMIRVYDSINKKFLLQLSGHDGGVWALKYAHGGILVSGSTDRTVRVWDIKKGCCTHVFKGHNSTVRCLDIVEYKNIKYIVTGSRDNTLHVWKLPKESSVPDHGEEHDYPLVFHTPEENPYFVGVLRGHMASVRTVSGHGNIVVSGSFDNTLIVWDVAQMKCLYILSGHTDRIYSTIYDHERKRCISASMDTTIRIWDLENIWNNGECSYATNSASPCAKILGAMYTLQGHTALVGLLRLSDKFLVSAAADGSIRGWDANDYSRKFSYHHTNLSAITTFYVSDNILVSGSENQFNIYNLRSGKLVHANILKDADQIWSVNFKGKTLVAAVEKDGQSFLEILDFSKASKINYVSNPVNSSSSSLESISTSLGLTRTTIIP
With B1, the “gal Sic1T33V” value in assay [1] was “dead”; in assay [1] (listed as Tyr548), “dosage sensitivity”. Besides, the “gal Sic1T45A” value in assay [1] was “dead”. Also, the “gal Sic1 wt” value in assay [1] is reported as “alive”. The “viability / sensitivity to increased SIC1 dosage” value in assay [1] is recorded as “lethal”. The figures for the P-Sic1 pull down entry in assay [2] and in assay [2] (listed as Tyr 548) were “no bind” and “compromised”, respectively. In addition, the shuffle result in assay [3] is “alive”; in assay [3] (listed as Tyr 548) it was “fractional”; in assay [3] (listed as Tyr548), “did not cause loss of viability”.

B2: K402A: mutant cdc4 polypeptide (protein)
chain: B1 chain with K402A, F548Y
As for B2, in assay [1], the “gal Sic1T33V” value is “alive”, the “gal Sic1T45A” value is on record as “dead”, the “gal Sic1 wt” value is listed as “alive” and the “viability / sensitivity to increased SIC1 dosage” value is reported as “indistinguishable from wild type”. In assay [2], the P-Sic1 pull down result is given as “bind”. The P-Sic1 pull down entry in assay [2] (listed as Lys402Ala) is reported as “fully competent; also recorded: indistinguishable from wild type”. Moreover, in assay [3], the shuffle result is recorded as “alive”. Also, the shuffle result in assay [3] (listed as Lys402Ala) was “viable; also recorded: indistinguishable from wild type”.

B3: R572A: mutant cdc4 polypeptide (protein)
chain: B1 chain with F548Y, R572A
For the molecule B3, the “gal Sic1T33V” value is on record as “dead” in assay [1] and “same effect” in assay [1] (listed as Arg 572). Moreover, the “gal Sic1T45A” value in assay [1] is “dead”. Moreover, in assay [1], the “gal Sic1 wt” value is given as “alive”. In addition, the P-Sic1 pull down entry in assay [2] is recorded as “no bind”; in assay [2] (listed as Arg572), “inablity to bind”. Also, the shuffle result is “alive” in assay [3] and “same behavior” in assay [3] (listed as Arg572).

B4: Y574F: mutant cdc4 polypeptide (protein)
chain: B1 chain with F548Y, Y574F
B4: in assay [1], the “gal Sic1T33V” value is reported as “alive”. Besides, the “gal Sic1T45A” value in assay [1] is given as “dead”. Further, the “gal Sic1 wt” value in assay [1] is “alive”. In addition, the “viability / sensitivity to increased SIC1 dosage” value in assay [1] is recorded as “indistinguishable from wild type”. Moreover, the P-Sic1 pull down result in assay [2] is on record as “bind”; in assay [2] (listed as Tyr574Ala), “fully competent”; in assay [2] (listed as Tyr574Phe) it was “indistinguishable from wild type”. In addition, the shuffle entry in assay [3] is “alive”; in assay [3] (listed as Tyr574Ala) it was “viable”; in assay [3] (listed as Tyr574Phe), “indistinguishable from wild type”.

B5: R443A: mutant cdc4 polypeptide (protein)
chain: B1 chain with R443A, F548Y
B5: in assay [1], the “gal Sic1T33V” value is recorded as “alive”, the “gal Sic1T45A” value is recorded as “dead”, the “gal Sic1 wt” value is recorded as “alive” and the “viability / sensitivity to increased SIC1 dosage” value is “indistinguishable from wild type”. For the same molecule, the P-Sic1 pull down entry in assay [2] is recorded as “bind”. Besides, the P-Sic1 pull down entry in assay [2] (listed as Arg443Ala) is “fully competent; also recorded: indistinguishable from wild type”. In assay [3], the shuffle entry is “alive”. Besides, in assay [3] (listed as Arg443Ala), the shuffle result is listed as “viable; also recorded: indistinguishable from wild type”.
